Patent US6379959

Biological target: T1, carboxypeptidase A
T1 sequence (P00730 111-419, species assumed, looked up): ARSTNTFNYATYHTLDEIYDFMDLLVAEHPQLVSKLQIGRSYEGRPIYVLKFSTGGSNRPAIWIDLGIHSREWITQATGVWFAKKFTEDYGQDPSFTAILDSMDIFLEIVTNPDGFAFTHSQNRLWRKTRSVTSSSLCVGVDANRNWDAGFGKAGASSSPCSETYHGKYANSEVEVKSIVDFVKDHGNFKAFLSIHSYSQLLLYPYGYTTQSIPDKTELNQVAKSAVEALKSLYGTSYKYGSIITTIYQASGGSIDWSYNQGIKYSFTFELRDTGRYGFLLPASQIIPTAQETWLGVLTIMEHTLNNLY
Experiment: carboxypeptidase inhibition (Ki); reference wild PCI

- decrease of the inhibitory capacity against the wild form (orders of magnitude): 3
Binder: EQHADPICNKPCKTHDDCSGAWFCQACWNSARTCGP [PCIdelY37V38G39]
